Assay [1] has as its system SK-BR-3 human breast carcinoma cells. Put plainly: cells. The settings on record: 10-min exposure, then 72 hours growth, read-out: IC50 (doxorubicin concentration resulting in 50% cell growth inhibition). The class given is cell-based.
Method: SK-BR-3 human breast carcinoma cell line was purchased from American Tissue Type Culture Collection (ATCC, Manassas, Va.). Cells were maintained in in vitro culture in McCoy's 5A modified medium supplemented with 10% fatal bovine serum and were maintained in a humidified incubator at 37° C.
Cells were exposed for 10 minutes to doxorubicin (1.8 mg/mL) in free form, doxorubicin entrapped in PEGylated liposomes (2.06 mg/mL), or an immunoliposome formulation having 2 antibodies per liposome (1.86 mg/mL), 5 antibodies per liposome (2.12 mg/mL), 7.5 antibodies per liposome (1.99 mg/mL), or 15 antibodies per liposome (2 mg/mL).
Log-phase SK-BR-3 breast cancer cells were harvested using Versene (1:5000), resuspended in growth media at concentration of 5×10^4 cells/mL. […] At the end of incubation, the amount of viable cells was determined using the Promega CellTiter 96® Aqueous One Solution Cell Proliferation Assay (a tetrazolium based colorimetric method for determining the number of viable cells in proliferation, Madison, Wis.). […] The plates were then incubated for 3-4 hours after which absorbance was recorded at 490 nm with a microplate reader. Cell viability was calculated as % of untreated control using the formula: % Viability=(A−A0)/(A100−A0)×100% where A is the measured absorbance, A0 is the absorbance of the blanks, and A100 is the absorbance of the wells with untreated cells. […]
Assay [2] addresses T1, HER2 receptor (human, UniProt P04626 23-1255). Put plainly: cell-based or functional assay.
The target in assay [3] is T1, HER2 receptor. Put plainly: 4 h incubation of immunoliposomes with SK-BR-3 cells (IHC 3+), wash, lysis, doxorubicin fluorescence. The procedure: SK-BR-3 or MCF-7 cells at 1.5×10⁵ cells/0.5 mL of growth medium per well were added to a 24-well plate. After overnight incubation for attachment and acclimation, cells were treated with immunoliposomes ([…], 15:1, 30:1, and 45:1 anti-HER2 antibodies:liposome), or liposomes at 0.015 mg/mL in 0.5 mL growth media/well in duplicates. The 24-well plates were then placed on a rotating platform inside the incubator with rotation at 40-60 rpm at 37° C., 5% CO₂, and 100% humidity for 4 hours. After incubation, cell medium were aspirated and cells were washed four times with Hank's Balanced Salt Solution (HBSS). After this, cells were lysed by adding 0.1 mL of 1% Triton X-100 to each well. The plates were swirled to mix and placed on a rotating platform for 15 minutes at room temperature. During this step, cells detached from the bottom of the plate and the cell nuclei formed visible clumps. Acid isopropanol (1.0 mL) were added to the wells containing the Triton X-100 solution and mixed by swirling or pipetting up and down until the visible clumps disappeared.
Doxorubicin content in the cell lysates was measured by a spectrofluorometer using an excitation wavelength of 470 nm and an emission wavelength of 590 nm. The spectrofluorometer settings were as follows: slit width 2 nm, integration time 1 second, photomultiplier voltage 950 V, and single wavelength acquisition mode. Fluorescence of the background cell lysate was subtracted and the amount of doxorubicin in the cell lysates was determined from the concurrently measured standards (10, 25, 50, 100, 250, 500, 1000, and 2500 ng of doxorubicin per sample) fit to a standard curve using quadratic polynomial regression. Cell uptake of doxorubicin was determined by interpolation from the standard curve.

In assay [4] the target is extracellular domain of HER2 receptor (Homo sapiens, UniProt P04626). The settings on record: read-out: HER2 binding affinity (Kd); cited from earlier work.

≈ marks a conversion by molar mass, not a printed value.

In the case of `COc1cccc2c1C(=O)c1c(O)c3c(c(O)c1C2=O)C[C@@](O)(C(=O)CO)C[C@@H]3O[C@H]1C[C@H](N)[C@H](O)[C@H](C)O1` [free doxorubicin, doxorubicin], in assay [1], the IC50 is about 9.5 µg/mL (≈ 17.5 µM).

B1: anti-Her2 immunoliposome formulation with scFv/liposome ratio of 5 (scFv)
scFv: QVQLVESGGGLVQPGGSLRLSCAASGFTFRSYAMSWVRQAPGKGLEWVSAISGRGDNTYYADSVKGRFTISRDNSKNTLYLQMNSLRAEDTAVYYCAKMTSNAFAFDYWGQGTLVTVSSGGGGSGGGGSGGGGSQSVLTQPPSVSGAPGQRVTISCTGSSSNIGAGYGVHWYQQLPGTAPKLLIYGNTNRPSGVPDRFSGFKSGTSASLAITGLQAEDEADYYCQSYDSSLSGWVFGGGTKLTVLG
modifications: terminal cysteine coupled through a thioether linkage to maleimide-PEG-DSPE
On to B1, for which, in assay [2], the “IC50 (cytotoxicity, SK-BR-3 cells, 10-min exposure, doxorubicin concentration)” value is about 30 µg/mL.

B2: Anti-HER2 Immunoliposomes (15:1) (scFv)
scFv: B1 scFv
modifications: terminal cysteine coupled through a thioether linkage to maleimide-PEG-DSPE
notes: On average 15 scFv per liposome; also called 15:1 immunoliposome formulation; immunoliposomes with 15 antibodies per liposome
As to B2, the “IC50 (cytotoxicity, SK-BR-3 cells, 10-min exposure, doxorubicin concentration)” value in assay [2] was about 3.9 µg/mL. For the same molecule, the “Doxorubicin (pg/cell), cellular binding/uptake” value in assay [3] is 8.35 pg/cell.

B3: Anti-HER2 Immunoliposomes (7.5:1) (scFv)
scFv: B1 scFv
modifications: terminal cysteine coupled through a thioether linkage to maleimide-PEG-DSPE
notes: On average 7.5 scFv per liposome; also called 7.5:1 immunoliposome formulation; immunoliposomes containing 7.5 antibodies per liposome
Take B3: in assay [2], the “IC50 (cytotoxicity, SK-BR-3 cells, 10-min exposure, doxorubicin concentration)” value is about 16 µg/mL. Moreover, the “Doxorubicin (pg/cell), cellular binding/uptake” value in assay [3] is 6.02 pg/cell.

B4: F5: single chain antibody fragment (scFv), 251 amino acids, binds extracellular domain of HER2 receptor, SEQ ID NO: 2 (protein, listed as Homo sapiens)
scFv: B1 scFv
In the case of B4, in assay [4], the equilibrium dissociation constant (Kd) was 150 to 300 nM.

B5: Anti-HER2 Immunoliposomes (45:1) (scFv)
scFv: B1 scFv
modifications: terminal cysteine coupled through a thioether linkage to maleimide-PEG-DSPE
notes: On average 45 scFv per liposome; also called 45:1 immunoliposome formulation; F5 scFv immunoliposome
In the case of B5, the “Doxorubicin (pg/cell), cellular binding/uptake” value in assay [3] came out at 4.39 pg/cell.

B6: Anti-HER2 Immunoliposomes (30:1) (scFv)
scFv: B1 scFv
modifications: terminal cysteine coupled through a thioether linkage to maleimide-PEG-DSPE
notes: On average 30 scFv per liposome; also called 30:1 immunoliposome formulation; F5 scFv immunoliposome
As to B6, the “Doxorubicin (pg/cell), cellular binding/uptake” value in assay [3] is 6.66 pg/cell.

Source of the values: patent publication US20060269542A1, “Immunoliposome composition for targeting to a HER2 cell receptor” (priority 2005, published 2006).
